Laboratory results as given in the RNAGym collection of RNA variant scans (doi:10.7554/elife.80360).

B1: Hairpin Ribozyme (parent)
chain: GUCCUCUUUCACGUGCGCGUGAAAGAGAGAAGUGAACCAGAGAAACACACGUUGUGGUAUAUUACCUGGUA

Variants of: B1
Test: self-cleavage, relative activity (ratio to wild type); higher = more cleavage; co-transcriptional

Q: For GUACUCUUUCACGUGCGCGUGAAAGAGAGAAGUGAACCAGAGACACACACGUUGUGGUAUAUUACCUGGUA [C3A A44C], which self-cleavage is on record?
A: The self-cleavage was 0.123.

Q: With GUACUCUUUCACGUGCGCGUGAAAGAGAGAAGUGAACCACAGAAACACACGUUGUGGUAUAUUACCUGGUA [C3A G40C] as the variant, how does the self-cleavage read?
A: Its self-cleavage is 0.0884.

Q: For GUACUCUUUCACGUGCGCGUGAAAGAGAGAAGUGAACCAGAGAAACCCACGUUGUGGUAUAUUACCUGGUA [C3A A47C], which self-cleavage is on record?
A: Its self-cleavage is 0.239.

Q: With GUGCUCUUUCACGUGCGCGUGCAAGAGAGAAGUGAACCAGAGAAACACACGUUGUGGUAUAUUACCUGGUA [C3G A22C] as the variant, how does the self-cleavage read?
A: The self-cleavage was 0.227.

Q: For GUACUCUUUCACGUGCGCGUUAAAGAGAGAAGUGAACCAGAGAAACACACGUUGUGGUAUAUUACCUGGUA [C3A G21U], which self-cleavage is on record?
A: The self-cleavage was 0.655.

Q: Which self-cleavage does the source give for GUACUCUUUCACGUGCGCGUAAAAGAGAGAAGUGAACCAGAGAAACACACGUUGUGGUAUAUUACCUGGUA [C3A G21A] here?
A: Its self-cleavage is 0.567.

Q: For GUACUCUUUCACGUGCGCGUGAAAGAGAGAAGUGAACCAGAGAAACACACGUUGUGGUAUAUUAACUGGUA [C3A C65A], which self-cleavage is on record?
A: The self-cleavage was 0.662.

Q: Which self-cleavage does the source give for GUACUCUUUCACGUCCGCGUGAAAGAGAGAAGUGAACCAGAGAAACACACGUUGUGGUAUAUUACCUGGUA [C3A G15C] here?
A: The self-cleavage was 0.65.

Q: Which self-cleavage does the source give for GUACUCUUUCACGUGCGCGUGAAAGAGAGAAGUGAACCAGAGAAACACACGUUGUGUUAUAUUACCUGGUA [C3A G57U] here?
A: The self-cleavage was 0.153.

Q: For GUACUCUUUCACAUGCGCGUGAAAGAGAGAAGUGAACCAGAGAAACACACGUUGUGGUAUAUUACCUGGUA [C3A G13A], which self-cleavage is on record?
A: Its self-cleavage is 0.628.

Q: Which self-cleavage does the source give for GUGCUCUUUCACGUGCGCGUGAAAGAGAGCAGUGAACCAGAGAAACACACGUUGUGGUAUAUUACCUGGUA [C3G A30C] here?
A: The self-cleavage was 0.0439.

Q: For GUGCUCUUUCACGUGCGCGUGAAAGAGAGUAGUGAACCAGAGAAACACACGUUGUGGUAUAUUACCUGGUA [C3G A30U], which self-cleavage is on record?
A: Its self-cleavage is 0.118.

Q: For GUACUCUUUCACGUGCGCGUGAAAGAGAGAAGUGAACCAGAGAAACACACGUUGUGGUAUAUCACCUGGUA [C3A U63C], which self-cleavage is on record?
A: Its self-cleavage is 0.154.

Q: Which self-cleavage does the source give for GUACUCUUUCACGUGCGCGUGAAAGAGAGAAGUGAACCAGAGAAACACACGUUGUGGUAUAUGACCUGGUA [C3A U63G] here?
A: The self-cleavage was 0.174.

Q: Which self-cleavage does the source give for GUACUAUUUCACGUGCGCGUGAAAGAGAGAAGUGAACCAGAGAAACACACGUUGUGGUAUAUUACCUGGUA [C3A C6A] here?
A: Its self-cleavage is 0.484.

Q: With GUACUCUUUCACGUGCGCGUGAAAGAGAGAAGUGAACCAGAGAAACACACGUUGUGGUAGAUUACCUGGUA [C3A U60G] as the variant, how does the self-cleavage read?
A: Its self-cleavage is 0.338.

Q: For GUACUCUUUCAAGUGCGCGUGAAAGAGAGAAGUGAACCAGAGAAACACACGUUGUGGUAUAUUACCUGGUA [C3A C12A], which self-cleavage is on record?
A: The self-cleavage was 0.603.

Q: With GUACUCUUUCAGGUGCGCGUGAAAGAGAGAAGUGAACCAGAGAAACACACGUUGUGGUAUAUUACCUGGUA [C3A C12G] as the variant, how does the self-cleavage read?
A: The self-cleavage was 0.636.

Q: Which self-cleavage does the source give for GUGCUCUUUCACGUGCGCGUGACAGAGAGAAGUGAACCAGAGAAACACACGUUGUGGUAUAUUACCUGGUA [C3G A23C] here?
A: Its self-cleavage is 0.194.

Q: For GUACUCUUUCACGUGCGCGUGAAAGAGAGAAGUGCACCAGAGAAACACACGUUGUGGUAUAUUACCUGGUA [C3A A35C], which self-cleavage is on record?
A: Its self-cleavage is 1.15.

Q: For GUACUCUUUCACGUGCGCGUGAAAGAGAGAAGUGAACCAGAGAAACACACGCUGUGGUAUAUUACCUGGUA [C3A U52C], which self-cleavage is on record?
A: Its self-cleavage is 0.619.

Q: For GUACUCUUUCACGUGCGCGUGAAAGACAGAAGUGAACCAGAGAAACACACGUUGUGGUAUAUUACCUGGUA [C3A G27C], which self-cleavage is on record?
A: Its self-cleavage is 0.21.

Q: For GUACUCUUUCACGUGCGCGUGAAAGAGAGAAGUGAACCAGAGAAACACACGUUGUGGUAUAUUACCUGAUA [C3A G69A], which self-cleavage is on record?
A: Its self-cleavage is 0.275.

Q: Which self-cleavage does the source give for GUACUCUUUCACGUGCGCGUGAAAGAGAGAAGUGAACCAGAGAAACACACGUUGUGGUAUAUUACCUGUUA [C3A G69U] here?
A: Its self-cleavage is 0.212.

Q: For GUACUCUUUCACGUGCGCGUGAAAGAGAGAAGUGAACCAGAGAAACACACGUUGUGGUAUAGUACCUGGUA [C3A U62G], which self-cleavage is on record?
A: The self-cleavage was 0.101.

Q: For GUACUCUUUCACGUGCGCGUGAAAGAGAGAAGUGAACCAGAGAAACACACGUUGUGGUAUAAUACCUGGUA [C3A U62A], which self-cleavage is on record?
A: Its self-cleavage is 0.184.

Q: For GUACUCUUUCACGUGCGCGUGAAAGAGAGAAGUGAACCAGAGAAACACAAGUUGUGGUAUAUUACCUGGUA [C3A C50A], which self-cleavage is on record?
A: The self-cleavage was 0.145.

Q: For GUACUCUUUCACGUGCGCGUGAAAGAGAGAAGUGAACCAGAGAAACACAUGUUGUGGUAUAUUACCUGGUA [C3A C50U], which self-cleavage is on record?
A: The self-cleavage was 0.236.

Q: Which self-cleavage does the source give for GUACUCUUUCACGUGCGCGUGAAAGAGAGAAGUGAACCAGAGAAACACGCGUUGUGGUAUAUUACCUGGUA [C3A A49G] here?
A: The self-cleavage was 0.426.

Q: For GUACGCUUUCACGUGCGCGUGAAAGAGAGAAGUGAACCAGAGAAACACACGUUGUGGUAUAUUACCUGGUA [C3A U5G], which self-cleavage is on record?
A: The self-cleavage was 0.117.

Q: With GUACCCUUUCACGUGCGCGUGAAAGAGAGAAGUGAACCAGAGAAACACACGUUGUGGUAUAUUACCUGGUA [C3A U5C] as the variant, how does the self-cleavage read?
A: Its self-cleavage is 0.247.

Q: For GUACUCUGUCACGUGCGCGUGAAAGAGAGAAGUGAACCAGAGAAACACACGUUGUGGUAUAUUACCUGGUA [C3A U8G], which self-cleavage is on record?
A: Its self-cleavage is 0.541.

Q: With GUACUCUUUAACGUGCGCGUGAAAGAGAGAAGUGAACCAGAGAAACACACGUUGUGGUAUAUUACCUGGUA [C3A C10A] as the variant, how does the self-cleavage read?
A: Its self-cleavage is 0.461.

Q: With GUACUCUUUCACGUGCGCGUGAAAGAGAGAAGUGAACCAGAGAAACACACGUUGUGGGAUAUUACCUGGUA [C3A U58G] as the variant, how does the self-cleavage read?
A: The self-cleavage was 0.274.

Q: With GUACUCUUUCACGUGCGCGUGAAAGAGAGAAGUGAACCAGAGAAACACACGUUGUGGCAUAUUACCUGGUA [C3A U58C] as the variant, how does the self-cleavage read?
A: Its self-cleavage is 0.811.

Q: With GUACUCUUUCACGUGCGCGUGAAAGAGAGAAGUGAACCAGAGAAACACACGUUGUGGAAUAUUACCUGGUA [C3A U58A] as the variant, how does the self-cleavage read?
A: Its self-cleavage is 0.637.

Q: Which self-cleavage does the source give for GUACUCUUUCACGUGCGCGUGAAAAAGAGAAGUGAACCAGAGAAACACACGUUGUGGUAUAUUACCUGGUA [C3A G25A] here?
A: Its self-cleavage is 0.457.

Q: Which self-cleavage does the source give for GUACUCUUUCACGUGCGCGUGAAAGAGAGAAGUGAACCAGAGAAACAAACGUUGUGGUAUAUUACCUGGUA [C3A C48A] here?
A: The self-cleavage was 0.152.
